In US20220195070A1 (Chugai, published 2022):

What was measured:
[1] = biological target: T1, anti-DENV E protein antibody comprising a modified IgG heavy chain constant region (SEQ ID NO: 116); assay: SPR (Biacore T200), 25 C, pH 7.4; SKA antibody captured by anti-rabbit IgG, anti-DENV E protein antibody injected 0-400 nM
T1 construct: also called anti-DENY E protein antibody; Fc-Mutated Antibody
Source text: (§1) Anti-rabbit IgG was immobilized onto FC 3 and 4 of a CMS sensor chip using an amine coupling kit (GE Healthcare). For the immobilization of anti-rabbit IgG, HBS-EP+, pH7.4 (GE Healthcare) buffer was used as running buffer. After the immobilization, running buffer was changed to phosphate pH7.4 buffer. Each antibody was captured onto FC4 of the sensor chip by anti-rabbit IgG. The amount of Anti Fc-Mutation Antibody to be captured was adjusted so that the number of resonance units (RU) was 100.

[2] = biological target: T1, anti-DENV E protein antibody comprising …; assay: SPR (Biacore T200), 25 C, pH 7.4; SKA antibody captured by anti-rabbit IgG, anti-DENV E protein antibody injected 0-400 nM; *reliability might be low
Source text: as §1

T1 sequence (constant, as listed by the source limits assumed): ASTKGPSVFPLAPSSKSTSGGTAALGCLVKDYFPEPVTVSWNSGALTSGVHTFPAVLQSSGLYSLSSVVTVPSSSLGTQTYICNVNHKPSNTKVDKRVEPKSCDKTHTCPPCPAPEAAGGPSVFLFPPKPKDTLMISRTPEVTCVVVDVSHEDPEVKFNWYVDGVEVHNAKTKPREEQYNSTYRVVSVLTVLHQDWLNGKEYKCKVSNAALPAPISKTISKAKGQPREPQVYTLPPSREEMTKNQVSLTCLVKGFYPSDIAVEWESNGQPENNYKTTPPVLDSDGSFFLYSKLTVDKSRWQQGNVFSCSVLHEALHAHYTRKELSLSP

B1: SKA0117 (antibody, V domains shown)
VH: QSLEESGGDLVKPEGSLTLTCTASGFSFSSSHYMCWVRQAPGKGLEWIACIYAGSSDNTYYASWAKGRFTISKTSSTTVTLQMTSLTAADTATYFCARDTYGYVGYASAGGFFNLWGPGTLVTVSS
VL: ALVMTQTPASVSAAVGGTVTINCQASHNIYSVLAWYQQKPGQRPRLLIYGASNLESGVPSRFKGSGSGTEYTLTISDLECDDAATYYCQSAYYSSSTGDNAFGGGTEVVVKG
notes: Recombinant rabbit monoclonal from B-cell cloning, expressed in FreeStyle 293-F cells; the first screen used B-cell culture supernatant; also called Anti-SG115 Antibody; rabbit Anti Fc-Mutation Antibody
kon [1]: 126000 M⁻¹ s⁻¹ | Kd [2]: 0.000275 nM | koff [2]: 3.46e-08 s⁻¹

B2: SKA0141 (antibody, V domains shown)
VH: QSLEESGGDLVKPGASLTLTCTASGFSFSSSYYMCWVRQAPGKGLEWIACIYAGSSGSTYYASWAKGRFTISKTSSTTVTLQMTSLTAADTATYFCARDGDENMLVGGYFNLWGPGTLVTVSS
VL: ALVMTQTPSSVSAAVGGTVTINCQASHNIYSNLAWYQQKPGQRPKLLIYGASNLESGVPSRFKGSGSGTEYTLTISDLECDDAATYYCQSAYYSSNAGYNAFGGGTEVVVKG
notes: as for B1
Kd [1]: 5.04 nM | koff [1]: 0.00135 s⁻¹ | kon [1]: 267000 M⁻¹ s⁻¹

B3: SKA0001 (antibody, V domains shown)
VH: QSVEESGGRLVTPGTPLTLTCTVSGFSLSYYAMNWVRQAPGKGLEWIGIIGISGGTYYASWAKGRFTISKSSSTTVDLKMTSPTTEDTATYFCARGGSAWGDLWGQGTLVTVSS
VL: DIVMTQTPSSVSAAVGGTVTINCQASQSISRLLAWYQQKPGQPPKVLMHDASDLASGVPSRFKGSGSGTEYTLTISDLECADAATYYCQSYYWGSSGDIGYPFGGGTEVVVKG
notes: as for B1
kon [1]: 44400 M⁻¹ s⁻¹ | Kd [2]: 0.00278 nM | koff [2]: 1.23e-07 s⁻¹

B4: SKA0028 (antibody, V domains shown)
VH: QSVEESGGRLVTPGTPLTLTCTASGFTISSYHMSWVRQAPGKGLEWIGIIHGSGNMWYASWAKGRFTISRTSTTVDLEITSPTTEDTATYFCARIRFWASSNYYYFYLWGQGTLVTVSS
VL: ALVMTQTPASVSEPVGGTVTINCQASQNIYSNLAWYQQKPGQRPRLLIYGASNLESGVPSRFRGSGSGTEFTLTISDLECADAATYYCQSAYWGNNNDGAFGGGTEVVVKG
notes: as for B1
koff [1]: 7.27e-05 s⁻¹ | kon [1]: 116000 M⁻¹ s⁻¹ | Kd [2]: 0.626 nM

B5: SKA0027 (antibody, V domains shown)
VH: QEQLVESGGGLVQPEGSLTLTCTASGFSFSSSDYMCWVRQAPGKGLEWIGCIYTGSGSTYYASWAKGRFTISKTSSTTVTLQMTSLTAADTATFFCARRGDSYSNYSFKLWGPGTLVTVSS
VL: AFELTQTPASVEAAVGGTVTIKCQASQNIYSNLAWYQQKPGQPPKLLIYTASSLASGVSSRFKGSGSGTEFTLTISDLECDDAATYYCQCTYINNGYGNTFGGGTEVVVKG
notes: as for B1
Kd [1]: 1 nM | koff [1]: 0.000191 s⁻¹ | kon [1]: 190000 M⁻¹ s⁻¹

B6: SKA0171 (antibody, V domains shown)
VH: QSLEESGGGLVQPEGSLTLSCTASGFSFSSSYYMCWVRQAPGKGLEWIACIYGGNSVITYYANWAKGRFTISETSSTTVTLQMTSLTAADTATYFCAREVHYDYLYTTYGYANLWGPGTLVTVSS
VL: AIKMTQTPASVSAVVGGTVTINCQASETIYSGLAWYQQKPGQPPKLLIYDTANLETGVSSRFKGSGSGTEYTLTISDLECDDAATYFCLYAYYSGGSADNAFGGGTEVVVKG
notes: as for B1
Kd [1]: 1.45 nM | koff [1]: 0.00149 s⁻¹ | kon [1]: 1.02e+06 M⁻¹ s⁻¹
